Laboratory results published in article PMC6193735, “Defining LytTR Regulatory Systems”.

Target: T1, HdrR (Streptococcus mutans UA140, UniProt Q8DSE1 1-133)
T1 sequence: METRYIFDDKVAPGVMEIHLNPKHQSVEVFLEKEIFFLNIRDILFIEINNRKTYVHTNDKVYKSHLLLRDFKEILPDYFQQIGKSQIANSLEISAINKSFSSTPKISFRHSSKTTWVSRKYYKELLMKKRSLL
Test: EMSA; 1 ng probe, 10-30 ug HdrR as printed, 20 ul; unlabeled wild-type competitor 50 and 200 ng; EMSA: 20 ul, 25 C, 20 min; binding buffer not printed (as ref 62); oligos annealed in 50 mM Tris-HCl pH 8.0, 10 mM MgCl2, 50 mM NaCl, 1 mM EDTA
Details: protein: recombinant; tags: His6 (HdrR-His6, pET29b); chain copies: 2; label: 5' digoxigenin-11-ddUTP on forward strand (probe); blunt

B1: hdrRMP (wild-type hdrRM operon direct repeat probe) (dsDNA)
DNA 1: TAATGGTTACCTCTTAGACATTAAAAATGACCACTTAATAGAAAAG
DNA 2: CTTTTCTATTAAGTGGTCATTTTTAATGTCTAAGAGGTAACCATTA
- binding result: binds
